Experimental data as given in patent US20200062842A1.

How the values were obtained:
[1] = target: human MUC1 on the surface of MUC1 expressing tumor cells (human) (UniProt P15941); assay: FACS, bone marrow aspirate of MM patient P #I
[2] = target: human MUC1 on the surface of MUC1 expressing tumor cells (human) (UniProt P15941); assay: FACS, bone marrow aspirate of MM patient P #3
[3] = target: human MUC1 on the surface of MUC1 expressing tumor cells (human) (UniProt P15941); assay: FACS, bone marrow aspirate of MM patient P #II
[4] = target: human MUC1 on the surface of MUC1 expressing tumor cells (human) (UniProt P15941); assay: flow cytometry, FITC-conjugated antibody, MCF7 cells; cell looks truncated
[5] = target: human MUC1 on the surface of MUC1 expressing tumor cells (human) (UniProt P15941); assay: flow cytometry, FITC-conjugated antibody, Raji cells; cell looks truncated
[6] = target: human MUC1 on the surface of MUC1 expressing tumor cells (human) (UniProt P15941); assay: flow cytometry, FITC-conjugated antibody, U266 cells; cell looks truncated
[7] = target: human MUC1 on the surface of MUC1 expressing tumor cells (human) (UniProt P15941); assay: flow cytometry, FITC-conjugated antibody, ARH-77 cells; cell looks truncated
[8] = target: human MUC1 on the surface of MUC1 expressing tumor cells (human) (UniProt P15941); assay: flow cytometry, FITC-conjugated antibody, MDA-231 cells; cell looks truncated
[9] = target: human MUC1 on the surface of MUC1 expressing tumor cells (human) (UniProt P15941); assay: flow cytometry, FITC-conjugated antibody, MDA-453 cells; cell looks truncated
[10] = target: human MUC1 on the surface of MUC1 expressing tumor cells (human) (UniProt P15941); assay: flow cytometry, FITC-conjugated antibody, OVCAR-3 cells; cell looks truncated
[11] = target: human MUC1 on the surface of MUC1 expressing tumor cells (human) (UniProt P15941); assay: flow cytometry, FITC-conjugated antibody, RPMI8226 cells; cell looks truncated
[12] = target: human MUC1 on the surface of MUC1 expressing tumor cells (human) (UniProt P15941); assay: flow cytometry, FITC-conjugated antibody, MCF7 cells; negative control
[13] = target: human MUC1 on the surface of MUC1 expressing tumor cells (human) (UniProt P15941); assay: flow cytometry, FITC-conjugated antibody, Raji cells; negative control
[14] = target: human MUC1 on the surface of MUC1 expressing tumor cells (human) (UniProt P15941); assay: flow cytometry, FITC-conjugated antibody, U266 cells; negative control
[15] = target: human MUC1 on the surface of MUC1 expressing tumor cells (human) (UniProt P15941); assay: flow cytometry, FITC-conjugated antibody, Ramos cells; negative control
[16] = target: human MUC1 on the surface of MUC1 expressing tumor cells (human) (UniProt P15941); assay: flow cytometry, FITC-conjugated antibody, ARH-77 cells; negative control
[17] = target: human MUC1 on the surface of MUC1 expressing tumor cells (human) (UniProt P15941); assay: flow cytometry, FITC-conjugated antibody, MDA-231 cells; negative control
[18] = target: human MUC1 on the surface of MUC1 expressing tumor cells (human) (UniProt P15941); assay: flow cytometry, FITC-conjugated antibody, MDA-453 cells; negative control
[19] = target: human MUC1 on the surface of MUC1 expressing tumor cells (human) (UniProt P15941); assay: flow cytometry, FITC-conjugated antibody, OVCAR-3 cells; negative control
[20] = target: human MUC1 on the surface of MUC1 expressing tumor cells (human) (UniProt P15941); assay: flow cytometry, FITC-conjugated antibody, RPMI8226 cells; negative control

Sequence of UniProt P15941 (P15941 24-1255): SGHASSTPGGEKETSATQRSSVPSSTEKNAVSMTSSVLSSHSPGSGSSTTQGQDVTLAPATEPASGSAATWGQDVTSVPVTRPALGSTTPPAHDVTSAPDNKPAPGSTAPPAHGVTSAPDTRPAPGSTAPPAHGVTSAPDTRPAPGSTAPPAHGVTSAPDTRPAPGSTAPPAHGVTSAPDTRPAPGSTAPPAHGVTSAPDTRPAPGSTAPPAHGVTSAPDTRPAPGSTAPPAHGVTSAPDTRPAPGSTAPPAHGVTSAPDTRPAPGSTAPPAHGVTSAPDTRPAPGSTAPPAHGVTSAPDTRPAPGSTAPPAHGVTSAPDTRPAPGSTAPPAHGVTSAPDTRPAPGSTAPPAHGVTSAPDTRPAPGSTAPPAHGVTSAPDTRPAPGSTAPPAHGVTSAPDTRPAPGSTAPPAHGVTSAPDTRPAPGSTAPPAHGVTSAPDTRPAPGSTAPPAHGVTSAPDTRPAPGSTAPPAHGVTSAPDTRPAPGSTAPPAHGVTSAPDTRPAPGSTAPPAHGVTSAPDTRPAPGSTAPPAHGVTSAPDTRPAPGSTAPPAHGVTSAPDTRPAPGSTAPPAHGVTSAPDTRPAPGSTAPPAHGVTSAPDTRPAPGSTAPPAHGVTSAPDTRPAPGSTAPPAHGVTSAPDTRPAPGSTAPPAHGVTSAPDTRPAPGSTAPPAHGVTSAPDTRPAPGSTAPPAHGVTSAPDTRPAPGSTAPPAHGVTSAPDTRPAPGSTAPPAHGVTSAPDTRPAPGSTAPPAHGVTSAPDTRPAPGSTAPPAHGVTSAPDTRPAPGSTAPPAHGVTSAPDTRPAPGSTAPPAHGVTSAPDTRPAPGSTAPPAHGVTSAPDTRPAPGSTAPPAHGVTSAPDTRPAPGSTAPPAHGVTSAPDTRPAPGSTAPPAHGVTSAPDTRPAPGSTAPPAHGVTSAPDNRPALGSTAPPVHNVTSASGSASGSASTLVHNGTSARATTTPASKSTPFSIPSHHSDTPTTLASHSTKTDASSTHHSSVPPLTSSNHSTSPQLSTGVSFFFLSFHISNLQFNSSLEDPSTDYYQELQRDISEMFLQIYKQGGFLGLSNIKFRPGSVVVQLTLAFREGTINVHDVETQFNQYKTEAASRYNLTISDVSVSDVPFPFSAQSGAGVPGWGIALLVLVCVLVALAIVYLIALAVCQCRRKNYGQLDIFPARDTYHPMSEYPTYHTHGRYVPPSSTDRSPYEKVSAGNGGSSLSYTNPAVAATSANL

% of CD138 positive cells immunoreactive [1] [%]	% of cells immunoreactive [2] [%]	% of CD138 positive cells immunoreactive [3] [%]	geometric mean (FACS) [4]	geometric mean (FACS) [5]	geometric mean (FACS) [6]	geometric mean (FACS) [7]	geometric mean (FACS) [8]	geometric mean (FACS) [9]	geometric mean (FACS) [10]	geometric mean (FACS) [11]	geometric mean (FACS) [12]	geometric mean (FACS) [13]	geometric mean (FACS) [14]	geometric mean (FACS) [15]	geometric mean (FACS) [16]	geometric mean (FACS) [17]	geometric mean (FACS) [18]	geometric mean (FACS) [19]	geometric mean (FACS) [20]	Substance
78.3	0.37	59.2	4	3	39	68	66	80	456	585	–	–	–	–	–	–	–	–	–	H23 anti-MUC1 TRA monoclonal antibody
–	–	–	–	–	–	–	–	–	–	–	230	131	485	198	176	245	182	370	745	Mouse control (species-specific isotype control, FITC conjugated) (antibody)
–	–	–	–	–	–	–	–	–	–	–	236	128	471	111	161	215	165	418	738	Rabbit control (species-specific isotype control, FITC conjugated) (antibody)
